Test results as given in PMC7647453.
Read-outs that look alike come from different tables or passages of the source.

Columns and labels:
Test in all cases: MST
[1] = target: NanoTemper RED-labeled FVIIa (FVIIa-R) (human) (UniProt P08709)
[2] = target: NanoTemper RED-labeled FVIIa (FVIIa-R) (human) (UniProt P08709); remark: listed apart in the source
[3] = target: NanoTemper RED-labeled FVIIa (FVIIa-R) (human) (UniProt P08709); remark: listed apart in the source
[4] = target: NanoTemper RED-labeled FVIIa (FVIIa-R) (human) (UniProt P08709); remark: listed apart in the source
[5] = target: NanoTemper RED-labeled FVIIa (FVIIa-R) (human) (UniProt P08709); remark: listed apart in the source
[6] = target: NanoTemper RED-labeled FVIIa (FVIIa-R) (human) (UniProt P08709); remark: listed apart in the source
[7] = target: NanoTemper RED-labeled FVIIa (FVIIa-R) (human) (UniProt P08709); remark: listed apart in the source
[8] = target: NanoTemper RED-labeled FVIIa (FVIIa-R) (human) (UniProt P08709); remark: listed apart in the source
[9] = target: NanoTemper RED-labeled FVIIa (FVIIa-R) (human) (UniProt P08709); remark: listed apart in the source
[10] = target: NanoTemper RED-labeled FVIIa (FVIIa-R) (human) (UniProt P08709); remark: listed apart in the source
[11] = target: NanoTemper RED-labeled FVIIa (FVIIa-R) (human) (UniProt P08709); remark: listed apart in the source
[12] = target: NanoTemper RED-labeled FVIIa (FVIIa-R) (human) (UniProt P08709); remark: listed apart in the source
[13] = target: NanoTemper RED-labeled FVIIa (FVIIa-R) (human) (UniProt P08709); remark: listed apart in the source

UniProt P08709, sequence (P08709 61-212, chain 1 of 2): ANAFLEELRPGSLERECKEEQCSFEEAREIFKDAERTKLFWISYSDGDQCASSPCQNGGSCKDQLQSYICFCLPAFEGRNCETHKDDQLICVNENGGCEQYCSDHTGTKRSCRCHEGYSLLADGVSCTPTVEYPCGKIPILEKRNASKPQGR
UniProt P08709, sequence (P08709 213-466, chain 2 of 2): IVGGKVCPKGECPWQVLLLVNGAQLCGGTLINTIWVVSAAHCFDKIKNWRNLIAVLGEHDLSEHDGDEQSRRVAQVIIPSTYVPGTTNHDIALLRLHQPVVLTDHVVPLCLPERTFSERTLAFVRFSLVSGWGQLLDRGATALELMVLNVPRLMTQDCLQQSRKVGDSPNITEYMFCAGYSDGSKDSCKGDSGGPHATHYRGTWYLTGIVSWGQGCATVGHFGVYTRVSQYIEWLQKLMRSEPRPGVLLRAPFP

Substance: gCΔ457t (soluble recombinant HSV1 glycoprotein C) (from UniProt P10228 25-511) (domain or fragment)
- Kd [1]: 400 nM
- Kd [2]: 2000 nM
- Kd [3]: 2900 nM
- Kd [4]: > 13000 nM
- Kd [5]: 2700 nM
- Kd [6]: 2200 nM
- Kd [7]: 600 nM
- Kd [8]: 1000 nM
- Kd [9]: > 12000 nM
- Kd [10]: 1300 nM
- Kd [11]: 900 nM
- Kd [12]: 1600 nM
- Kd [13]: 800 nM
